This is an account of results in article PMC10235943.

Assay [1] concerns the target transiently expressed IP3R1 (wild type) (human) (UniProt Q14643). In words: sucrose density gradient fractionation.
The next assay concerns the target endogenous IP3R1 (UniProt Q14643). Kind of assay: sucrose density gradient fractionation.

endogenous IP3R1, Q14643-1 1-2758 (receptor), sequence (Q14643 whole entry): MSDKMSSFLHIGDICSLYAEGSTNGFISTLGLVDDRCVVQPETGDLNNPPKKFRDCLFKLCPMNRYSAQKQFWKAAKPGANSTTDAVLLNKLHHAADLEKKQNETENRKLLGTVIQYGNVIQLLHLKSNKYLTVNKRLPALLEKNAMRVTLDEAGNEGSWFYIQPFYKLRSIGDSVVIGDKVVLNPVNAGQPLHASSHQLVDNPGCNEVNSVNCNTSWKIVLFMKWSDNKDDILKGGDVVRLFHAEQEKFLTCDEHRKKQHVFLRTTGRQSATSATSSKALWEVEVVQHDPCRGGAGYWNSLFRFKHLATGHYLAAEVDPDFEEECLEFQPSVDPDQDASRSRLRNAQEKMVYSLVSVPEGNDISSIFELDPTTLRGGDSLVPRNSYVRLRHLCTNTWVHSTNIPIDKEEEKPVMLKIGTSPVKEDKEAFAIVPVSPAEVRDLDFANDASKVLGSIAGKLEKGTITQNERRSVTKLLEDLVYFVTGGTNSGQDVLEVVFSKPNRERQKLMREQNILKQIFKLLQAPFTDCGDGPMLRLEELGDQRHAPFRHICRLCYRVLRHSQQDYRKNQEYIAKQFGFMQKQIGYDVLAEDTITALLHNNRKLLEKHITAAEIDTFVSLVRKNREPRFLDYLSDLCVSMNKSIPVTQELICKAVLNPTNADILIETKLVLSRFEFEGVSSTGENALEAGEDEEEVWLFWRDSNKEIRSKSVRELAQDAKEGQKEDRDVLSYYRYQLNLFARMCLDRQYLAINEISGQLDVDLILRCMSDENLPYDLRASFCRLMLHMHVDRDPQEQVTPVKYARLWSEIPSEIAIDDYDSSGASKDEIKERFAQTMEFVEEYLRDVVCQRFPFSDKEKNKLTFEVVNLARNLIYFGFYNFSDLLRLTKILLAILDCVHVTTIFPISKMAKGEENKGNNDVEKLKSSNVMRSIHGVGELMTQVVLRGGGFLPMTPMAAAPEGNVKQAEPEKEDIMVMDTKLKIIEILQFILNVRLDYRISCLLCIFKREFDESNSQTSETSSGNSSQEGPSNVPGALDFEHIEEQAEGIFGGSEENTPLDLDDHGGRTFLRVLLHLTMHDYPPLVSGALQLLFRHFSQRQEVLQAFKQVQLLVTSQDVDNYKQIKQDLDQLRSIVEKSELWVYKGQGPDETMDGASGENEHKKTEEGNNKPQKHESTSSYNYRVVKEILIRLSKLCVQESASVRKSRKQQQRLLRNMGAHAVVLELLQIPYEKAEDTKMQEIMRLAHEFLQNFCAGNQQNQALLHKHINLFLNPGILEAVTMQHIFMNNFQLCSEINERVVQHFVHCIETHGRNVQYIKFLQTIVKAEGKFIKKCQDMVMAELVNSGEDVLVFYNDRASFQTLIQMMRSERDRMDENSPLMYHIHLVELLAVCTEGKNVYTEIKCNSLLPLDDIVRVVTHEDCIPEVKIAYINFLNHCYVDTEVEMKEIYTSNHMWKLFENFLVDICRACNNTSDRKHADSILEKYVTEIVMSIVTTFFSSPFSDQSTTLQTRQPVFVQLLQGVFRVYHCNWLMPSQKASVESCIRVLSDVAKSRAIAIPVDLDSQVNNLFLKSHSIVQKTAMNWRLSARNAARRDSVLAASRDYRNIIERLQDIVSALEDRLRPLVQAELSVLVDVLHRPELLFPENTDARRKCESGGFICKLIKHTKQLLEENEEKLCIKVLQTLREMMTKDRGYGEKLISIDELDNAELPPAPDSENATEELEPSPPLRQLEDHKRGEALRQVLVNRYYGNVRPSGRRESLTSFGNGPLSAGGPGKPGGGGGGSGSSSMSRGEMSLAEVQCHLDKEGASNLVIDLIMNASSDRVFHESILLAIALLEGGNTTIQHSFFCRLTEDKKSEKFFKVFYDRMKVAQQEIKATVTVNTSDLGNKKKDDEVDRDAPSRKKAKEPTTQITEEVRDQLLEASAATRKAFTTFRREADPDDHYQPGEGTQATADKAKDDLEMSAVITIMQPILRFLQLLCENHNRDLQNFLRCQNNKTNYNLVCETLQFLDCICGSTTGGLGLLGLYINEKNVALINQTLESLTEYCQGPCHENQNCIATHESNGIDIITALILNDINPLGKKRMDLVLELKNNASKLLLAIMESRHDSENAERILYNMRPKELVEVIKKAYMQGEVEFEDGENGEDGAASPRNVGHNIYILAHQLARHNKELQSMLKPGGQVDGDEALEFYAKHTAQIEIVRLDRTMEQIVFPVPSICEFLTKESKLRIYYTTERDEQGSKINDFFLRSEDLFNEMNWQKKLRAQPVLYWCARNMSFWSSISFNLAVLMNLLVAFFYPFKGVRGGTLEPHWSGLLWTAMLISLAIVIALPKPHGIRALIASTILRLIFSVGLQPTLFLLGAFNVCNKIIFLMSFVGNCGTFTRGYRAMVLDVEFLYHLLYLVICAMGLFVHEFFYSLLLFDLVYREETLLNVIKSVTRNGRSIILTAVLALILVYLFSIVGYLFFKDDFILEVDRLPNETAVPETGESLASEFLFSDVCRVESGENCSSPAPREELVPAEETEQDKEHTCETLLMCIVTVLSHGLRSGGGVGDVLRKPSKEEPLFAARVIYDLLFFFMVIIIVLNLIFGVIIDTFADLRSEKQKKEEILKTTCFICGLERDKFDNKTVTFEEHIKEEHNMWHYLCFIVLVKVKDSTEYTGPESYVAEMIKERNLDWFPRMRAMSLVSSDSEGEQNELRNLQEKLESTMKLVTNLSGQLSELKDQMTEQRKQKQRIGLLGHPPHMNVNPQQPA

In turn, “transiently expressed IP3R1 (wild type), Q14643-1 1-2758 (receptor)” gave a stoichiometry N in assay [1] of 4.

With “endogenous IP3R1, Q14643-1 1-2758 (receptor)”, the stoichiometry N with endogenous IP3R1 was 4.
